From patent US20090004675A1, “Method of Identifying Compounds for Bacterial Growth Modulation” (priority 2004, published 2009)

Columns and labels:
[1] = molecular target: Escherichia coli β clamp (beta subunit of DNA polymerase III holoenzyme) (UniProt P0A988); experiment: fluorescence anisotropy; labeled peptide
[2] = molecular target: Escherichia coli β clamp (beta subunit of DNA polymerase III holoenzyme) (UniProt P0A988); experiment: fluorescence (fluorophore-labeled β titrated with peptide); ±0.9; labeled β
[3] = molecular target: Escherichia coli β clamp (beta subunit of DNA polymerase III holoenzyme) (UniProt P0A988); experiment: fluorescence (fluorophore-labeled β titrated with peptide); ±0.6; labeled β

Chain of Escherichia coli β clamp (beta subunit of DNA polymerase III holoenzyme) (P0A988 whole entry): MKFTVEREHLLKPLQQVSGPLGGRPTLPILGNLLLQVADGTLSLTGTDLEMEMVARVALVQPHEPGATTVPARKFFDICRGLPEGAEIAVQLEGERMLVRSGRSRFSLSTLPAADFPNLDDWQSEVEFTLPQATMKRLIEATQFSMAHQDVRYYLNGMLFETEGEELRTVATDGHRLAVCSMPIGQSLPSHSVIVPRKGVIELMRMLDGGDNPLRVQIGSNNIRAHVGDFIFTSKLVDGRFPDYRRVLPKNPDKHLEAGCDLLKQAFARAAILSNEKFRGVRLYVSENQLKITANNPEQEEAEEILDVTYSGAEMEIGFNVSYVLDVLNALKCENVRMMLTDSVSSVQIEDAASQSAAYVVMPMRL
Chain of Peptide corresponding to C-terminal residues of Streptococcus pyogenes Pol C (A2RGI3 1444-1465): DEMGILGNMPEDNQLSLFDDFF
Chain of C-terminal peptide corresponding to Staphylococcus aureus Pol C (A6QGG4 1419-1438): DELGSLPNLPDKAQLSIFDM

Row | Substance | Kd [1] [µM] | Kd [2] [µM] | Kd [3] [µM]
1 | C-terminal peptide corresponding to Staphylococcus aureus Pol C | 5.9 | 7.2 | 
2 | Peptide corresponding to C-terminal residues of Streptococcus pyogenes Pol C | 1.5 |  | 2.5
